# Results reported in paper doi:10.1101/2021.07.22.453368.
# What was measured:
# [1] = target: human Nogo 66 receptor 1 (human) (UniProt Q9BZR6); test: flow cytometry on cells
# [2] = target: junctional adhesion molecule-A (human) (UniProt Q9Y624); test: flow cytometry on cells
# UniProt Q9Y624, sequence (Q9Y624 28-299): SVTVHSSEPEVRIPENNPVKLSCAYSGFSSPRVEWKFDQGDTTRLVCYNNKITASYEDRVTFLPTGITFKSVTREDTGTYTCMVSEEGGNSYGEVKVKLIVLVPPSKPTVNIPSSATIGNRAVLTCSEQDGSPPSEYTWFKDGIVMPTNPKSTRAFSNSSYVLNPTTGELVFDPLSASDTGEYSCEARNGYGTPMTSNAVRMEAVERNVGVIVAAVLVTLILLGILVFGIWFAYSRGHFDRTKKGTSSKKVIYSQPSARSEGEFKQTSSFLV
# UniProt Q9BZR6, sequence (Q9BZR6 27-447): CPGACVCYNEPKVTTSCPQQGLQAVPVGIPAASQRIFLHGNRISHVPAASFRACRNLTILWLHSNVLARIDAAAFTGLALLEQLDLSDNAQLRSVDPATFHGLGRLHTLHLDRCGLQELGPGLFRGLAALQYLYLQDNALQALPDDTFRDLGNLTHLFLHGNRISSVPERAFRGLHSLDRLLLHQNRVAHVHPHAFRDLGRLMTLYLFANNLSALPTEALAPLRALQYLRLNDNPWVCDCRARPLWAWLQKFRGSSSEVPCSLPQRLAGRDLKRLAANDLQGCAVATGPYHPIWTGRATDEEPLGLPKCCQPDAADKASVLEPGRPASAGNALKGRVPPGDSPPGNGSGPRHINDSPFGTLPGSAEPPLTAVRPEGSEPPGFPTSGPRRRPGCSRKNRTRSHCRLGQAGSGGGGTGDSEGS
substance,measurement,setting,value
reovirus T3SA- virions (complex),percent of receptor-expressing cells bound by reovirus,[1],> 50%
same,percent of receptor-expressing cells bound by reovirus,[2],> 50%
